Changes are numbered by the printed parent chain. Some results are limits rather than exact numbers.

From patent US11155602B2, “Polypeptides targeting HIV fusion” (priority 2015, dated 2021) come the findings set out here.

The assay deals with NL-Rluc virus. Kind of assay: Combinectin potency assay: antiviral EC50, NL-Rluc virus in MT-2 cells, luciferase readout. Format: cell-based, HIV-1. Particulars: Anti-N17 Adnectin, Table 3. The procedure, abridged:
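Peptides, serially diluted threefold over 11 points in triplicate, were exposed for 4–5 days to MT-2 cells preinfected 1 h with NL-Rluc virus (MOI 0.01). Replication read out as Renilla luciferase signal, with EC50 derived against untreated infected controls.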

B1: 227 (protein)
chain: MGHHHHHHGGSVSDVPRDLEVVAATPTSLLISWEYKVHPYRYYRITYGETGGNSPVQEFTVPSVLSTATISGLKPGVDYTITVYAVTYGDDSAPISINYRKEAEL
modifications: Adnectin
Take B1: the EC50 is greater than 1000 nM.

B2: 226 (protein)
chain: MGHHHHHHGGSVSDVPRDLEVVAATPTSLLISWEYKVHPYRYYRIIHETGGNSPVQEFTVPSVLSTATISGLKPGVDYTITVYAVTYGDDSAPISINYRTEID
modifications: Adnectin
B2: the EC50 stood at 631 nM.

B3: 125 (protein)
chain: MGHHHHHHGGVSDVPRDLEVVAATPTSLLISWEYKVHPYRYYRITYGETGGNSPVQEFTVPSVLSTATISGLKPGVDYTITVYAVTYGVQSDPISINYRTPGG
modifications: Adnectin
As for B3, the EC50 amounted to 4340 nM.

B4: 123 (protein)
chain: MGVSDVPRDLEVVAATPTSLLISWEYKVHPYRYYRITYGETGGNSPVQEFTVPSVLSTATISGLKPGVDYTITVYAVTRGVDSAPISINYRTEIDKPSQHHHHHH
modifications: Adnectin
As for B4, the EC50 is 28 nM.

B5: 232 (protein)
chain: B4 chain with H29N, P30A, R79Y, V81I, D82E, A84S
modifications: Adnectin
B5: the EC50 amounted to 47 nM.

B6: 238 (protein)
chain: B4 chain with H29N, Y31W, R79Y, V81I, D82Q, A84P
modifications: Adnectin
Take B6: the EC50 came to 11 nM.

B7: 236 (protein)
chain: B4 chain with H29N, Y31W
modifications: Adnectin
With B7, the EC50 was 85 nM.

B8: 231 (protein)
chain: B4 chain with R79Y, D82N, A84I
modifications: Adnectin
Regarding B8, the EC50 came to 10 nM.

B9: 235 (protein)
chain: B4 chain with P30Y, Y31D, R79N, D82L, A84S
modifications: Adnectin
As for B9, the EC50 came out at 29 nM.

B10: 233 (protein)
chain: B4 chain with R79D, D82Q, A84S
modifications: Adnectin
As for B10, the EC50 was 55 nM.

B11: 234 (protein)
chain: B4 chain with H29N, P30A, R79Y, V81I, A84S
modifications: Adnectin
Consider B11, for which the EC50 came to 20 nM.

B12: 124 (protein)
chain: B4 chain with T60E, E93P
modifications: Adnectin
B12: the EC50 worked out at 6 nM.

B13: 230 (protein)
chain: MGVSDVPRDLEVVAATPTSLLISWEYKVHPYRYYRITYGETGGNSPVQEFTVPSVLSTATISGLKPGVDYTITVYAVTYGVDSDPISINYRTDDKPSQHHHHHH
modifications: Adnectin
With B13, the EC50 was 17 nM.

B14: 209 (protein)
chain: MGHHHHHHGGSVSDVPRDLEVVAATPTSLLISWEYKVHPYRYYRITYGETGGNSPVQEFTVPSVLSTATISGLKPGVDYTITVYAVTYGDDSTPISINYRTEID
modifications: Adnectin
Take B14: the EC50 stood at 20 nM.

B15: 229 (protein)
chain: B14 chain with H38D, P39H, Y40R, T93A
modifications: Adnectin
For the molecule B15, the EC50 is greater than 1000 nM.

B16: 225 (protein)
chain: B14 chain with H38T, P39S, T93A
modifications: Adnectin
In the case of B16, the EC50 is greater than 1000 nM.

B17: 214 (protein)
chain: B14 chain with Y88H, T93A
modifications: Adnectin
Turning to B17, the EC50 is greater than 1000 nM.

B18: 216 (protein)
chain: B14 chain with G72D, T93H
modifications: Adnectin
As to B18, the EC50 is greater than 1000 nM.

B19: 212 (protein)
chain: B14 chain with Y88H, T93A
modifications: Adnectin
Take B19: the EC50 turned out to be 86 nM.

B20: 218 (protein)
chain: B14 chain with S71R, T93A
modifications: Adnectin
For the molecule B20, the EC50 stood at 62 nM.

B21: 219 (protein)
chain: B14 chain with E34K, T93A
modifications: Adnectin
B21: the EC50 is greater than 1000 nM.

B22: 220 (protein)
chain: B14 chain with G9C, H38A, P39H, Y40N, T93A
modifications: Adnectin
On to B22, for which the EC50 was 86 nM.

B23: 228 (protein)
chain: B14 chain with H38N, P39H, Y40Q, T93A
modifications: Adnectin
Regarding B23, the EC50 is greater than 1000 nM.

B24: 213 (protein)
chain: B14 chain with T93W
modifications: Adnectin
Turning to B24, the EC50 is greater than 1000 nM.

B25: 223 (protein)
chain: B14 chain with H38D, P39Y, Y40R, T93A
modifications: Adnectin
Turning to B25, the EC50 is greater than 1000 nM.

B26: 215 (protein)
chain: B14 chain with E34K, K36D, T93A
modifications: Adnectin
Consider B26, for which the EC50 was greater than 1000 nM.

B27: 221 (protein)
chain: B14 chain with H38Y, P39G, T93A
modifications: Adnectin
As to B27, the EC50 was greater than 1000 nM.

B28: 224 (protein)
chain: B14 chain with H38A, P39Y, Y40D, T93A
modifications: Adnectin
For B28, the EC50 is greater than 1000 nM.

B29: 217 (protein)
chain: B14 chain with Y88R, T93A
modifications: Adnectin
With B29, the EC50 was greater than 1000 nM.

B30: 210 (protein)
chain: B14 chain with T93S
modifications: Adnectin
On to B30, for which the EC50 turned out to be 143 nM.

B31: 222 (protein)
chain: B14 chain with H38D, P39H, Y40Q, T93A
modifications: Adnectin
As for B31, the EC50 was greater than 1000 nM.

B32: 211 (protein)
chain: B14 chain with Y88R, T93A
modifications: Adnectin
For B32, the EC50 was found to be 631 nM.
